Data set [1] deals with T1, Hs CIC HMG-C1-His (Homo sapiens, UniProt Q96RK0-2;Q96RK0-2 188-288;1451-1527). Kind of data set: EMSA; similar affinity to longer probes; 60 mM Hepes pH 7.9, 20 mM Tris-HCl pH 7.9, 300 mM KCl, 5 mM EDTA, 5 mM DTT, 12% glycerol, 1 ug poly(dI-dC), 1 ug BSA, ~1 ng probe in 20 ul; 20 min on ice; 5% native PAGE in 0.5X TBE at 4 C. The note with it: protein: recombinant; tags: His; copies: 1;1; label: 32P. A general note: In EMSA bound probe runs differently from free probe, usually more slowly.

For data set [2], the target named is T1, Hs CIC HMG-C1-His. Kind of data set: EMSA; 60 mM Hepes pH 7.9, 20 mM Tris-HCl pH 7.9, 300 mM KCl, 5 mM EDTA, 5 mM DTT, 12% glycerol, 1 ug poly(dI-dC), 1 ug BSA, ~1 ng probe in 20 ul; 20 min on ice; 5% native PAGE in 0.5X TBE at 4 C. The following applies: protein: recombinant; tags: His; copies: 1;1; label: 32P.

T1 sequence (Q96RK0 1097-1197, chain 1 of 2): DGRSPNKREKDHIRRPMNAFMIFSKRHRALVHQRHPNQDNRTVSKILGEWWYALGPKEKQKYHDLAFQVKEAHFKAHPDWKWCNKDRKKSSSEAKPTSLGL
T1 sequence (Q96RK0 2360-2436, chain 2 of 2): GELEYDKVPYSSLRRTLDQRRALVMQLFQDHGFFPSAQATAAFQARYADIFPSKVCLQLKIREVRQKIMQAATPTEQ

B1: ETV5 18-bp CBS (dsDNA)
DNA 1: GGTTATGAATGAAAAACC
DNA 2: GGTTTTTCATTCATAACC
With B1, the binding result with Hs CIC HMG-C1-His [1] is “binds”.

B2: CBS syn (dsDNA)
DNA 1: GGGAATTAAGTTGAATGAATAGGCTGGGCC
DNA 2: GGCCCAGCCTATTCATTCAACTTAATTCCC
As to B2, in the data set with Hs CIC HMG-C1-His [2], the binding result is “binds”.

Source of the values: publication PMC5344332, “A new mode of DNA binding distinguishes Capicua from other HMG-box factors and explains its mutation patterns in cancer”.
